Data as given in US20100297664A1 (published 2010).

B1: Ab (52-3) (antibody, V domains shown)
VH: QVQLQQPGAELVKPGASVKLSCKASGYTFTSYWMHWVKQRPGQGLEWIGEINPSNGRTNYNEKFKSKATLTVDKSSSTAYMQLSSLTSEDSAVYYCARSRYYGSCYFDYWGQGTTLTVSS
VL: KIVMTQAAFSNPVTLGTSASISCRSSKSLLYSNGITYLYWYLQKPGQSPQLLIYQMSNLASGVPDRFSSSGSGTDFTLRISRVEAEDVGVYYCAQNLELPWTFGGGTKLEIK
B2: anti-mortalin monoclonal antibody 52-3 (antibody, V domains shown)
VH: QVQLQQPGAELVKPGASVKLSCKASGYTFTSYWMHWVKQRPGQGLEWIGEINPSNGRTNYNEKFKSKATLTVDKSSSTAYMQLSSLTSEDSAVYYCARSRYYGSCYFDYWGQGTTLTVSS
VL: KIVMTQAAFSNPVTLGTSASISCRSSKSLLYSNGITYLYWYLQKPGQSPQLLIYQMSNLASGVPDRFSSSGSGTDFTLRISRVEAEDVGVYYCAQNLELPWTFGGGTKLEIK

Assays:
Δmot #4 403-679 = experiment: BIACORE
[1] = target: full-length mortalin with an His tag (recombinant, expressed in Escherichia coli); experiment: BIACORE

Binder	Kd (Δmot #4 403-679)	Kd [1]
B1	4.61 nM	–
B2	–	8.17 nM
